Target: IVIg (Octagam)

B1: pCART124 (IdeS with additional N terminal methionine and histidine tag) (protein)
chain: MDSFSANQEIRYSEVTPYHVTSVWTKGVTPPANFTQGEDVFHAPYVANQGWYDITKTFNGKDDLLCGAATAGNMLHWWFDQNKDQIKRYLEEHPEKQKINFNGEQMFDVKEAIDTKNHQLDSKLFEYFKEKAFPYLSTKHLGVFPDHVIDMFINGYRLSLTNHGPTPVKEGSKDPRGGIFDAVFTRGDQSKLLTSRHDFKEKNLKEISDLIKKELTEGKALGLSHTYANVRINHVINLWGADFDSNGNLKAIYVTDSDSNASIGMKKYFVGVNSAGKVAISAKEIKEDNIGAQVLGLFTLSTGQDSWNQTNGGGHHHHHH
- enzyme concentration at which cleavage starts on SDS-PAGE: IdeS, which starts the cleavage at 0.9 ng/ml (lane 6) and has a dominating scIgG band at 1.9 ng/ml (lane 5)

B2: pCART203 (protein)
chain: MDDYQRNATEAYAKEVPHQITSVWTKGVTPPEQFTQGEDVIHAPYLAHQGWYDITKAFDGKDNLLCGAATAGNMLHWWFDQNKTEIEAYLSKHPEKQKIIFNNQELFDLKAAIDTKDSQTNSQLFNYFRDKAFPNLSARQLGVMPDLVLDMFINGYYLNVFKTQSTDVNRPYQDKDKRGGIFDAVFTRGDQTTLLTARHDLKNKGLNDISTIIKQELTEGRALALSHTYANVSISHVINLWGADFNAEGNLEAIYVTDSDANASIGMKKYFVGINAHGHVAISAKKIEGENIGAQVLGLFTLSSGKDIWQKLSGGGHHHHHH
- cleavage efficacy on SDS-PAGE, fold vs IdeS: a 2 fold increased efficacy compared to IdeS
- enzyme concentration at which IgG cleavage is seen on SDS-PAGE: demonstrates IgG cleavage at 0.5 ng/ml (lane 7)

B3: pCART208 (protein)
chain: MDDYQRNATEAYAKEVPHQITSVWTKGVTPPEQFTQGEDVIHAPYLAHQGWYDITKAFDGKDNLLCGAATAGNMLHWWFDQNKTEIEAYLSKHPEKQKIIIRNQELFDLKAAIDTKDSQTNSQLFNYFRDKAFPNLSARQLGVMPDLVLDMFINGYYLNVFKTQSTDVNRPYQDKDKRGGIFDAVFTRGDQTTLLTARHDLKNKGLNDISTIIKQELTEGRALALSHTYANVSISHVINLWGADFNAEGNLEAIYVTDSDANASIGMKKYFVGINAHGHVAISAKKIEGENIGAQVLGLFTLSSGKDIWQKLSGGGHHHHHH
- cleavage efficacy of the 1st heavy chain on SDS-PAGE, fold vs IdeS: approximately a 4 fold increase in cleavage efficacy of the 1st heavy chain

B4: BX1001865 (IdeS lacking tag, produced to GMP standard) (protein)
chain: DSFSANQEIRYSEVTPYHVTSVWTKGVTPPANFTQGEDVFHAPYVANQGWYDITKTFNGKDDLLCGAATAGNMLHWWFDQNKDQIKRYLEEHPEKQKINFNGEQMFDVKEAIDTKNHQLDSKLFEYFKEKAFPYLSTKHLGVFPDHVIDMFINGYRLSLTNHGPTPVKEGSKDPRGGIFDAVFTRGDQSKLLTSRHDFKEKNLKEISDLIKKELTEGKALGLSHTYANVRINHVINLWGADFDSNGNLKAIYVTDSDSNASIGMKKYFVGVNSAGKVAISAKEIKEDNIGAQVLGLFTLSTGQDSWNQTN
- enzyme concentration at which cleavage starts on SDS-PAGE: IdeS, which starts the cleavage at 0.9 ng/ml (lane 6) and has a dominating scIgG band at 1.9 ng/ml (lane 5)

From patent US20200179497
